From the supplement of paper PMC9170038

Assays:
Details in all cases: FMN input: 0 or 200 uM; Eterna round: R93 (includes R88 designs)
MS2 coat protein [1] = assay: apparent KD of MS2 coat protein, switch ON state; designed switch direction (-1 OFF switch, 1 ON switch): 1; higher = weaker reporter binding
Outline: (§1)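 Designed RNA switches were transcribed on-chip from Illumina sequencing clusters and titrated with SNAP-549-labelled MS2 coat protein in twofold steps from 0.7 or 1.5 nM up to 3 µM. Each step lasted 0.8–1.5 h at first and 10–20 min by the end, in 100 mM Tris-HCl pH 7.5, 80 mM KCl and 4 mM MgCl2, without or with constant ligand. Apparent KD is the median, for each design, of fits to normalised cluster binding curves.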

MS2 coat protein [2] = assay: apparent KD of MS2 coat protein, switch OFF state (with FMN for OFF switches, without FMN for ON switches); designed switch direction (-1 OFF switch, 1 ON switch): 1; higher = weaker reporter binding
Outline: as §1

MS2 coat protein [3] = assay: apparent KD of MS2 coat protein, switch ON state; designed switch direction (-1 OFF switch, 1 ON switch): -1; higher = weaker reporter binding
Outline: as §1

MS2 coat protein [4] = assay: apparent KD of MS2 coat protein, switch OFF state (with FMN for OFF switches, without FMN for ON switches); designed switch direction (-1 OFF switch, 1 ON switch): -1; higher = weaker reporter binding
Outline: as §1

Row | Sequence | apparent KD of MS2 coat protein (MS2 coat protein [1]) [nM] | apparent KD of MS2 coat protein (MS2 coat protein [2]) [nM] | apparent KD of MS2 coat protein (MS2 coat protein [3]) [nM] | apparent KD of MS2 coat protein (MS2 coat protein [4]) [nM]
1 | CAUCACGCGCCUAAGGAUAUGUCUCACAAGACAUGAGGAUCACCCAUGUAGACUAAAUAAACGAUGCAGAAGGUGGAGCGCAUGC [Usrexe] | 76.4 | 149 | – | –
2 | AAAAGACAUGAGGAUCACCCAUGUAAAAACGUAGGAGGAUAUGUCUUGAAAAAAGACUUGACAGAAGGCCUGUGUC [SS1 - 53] | 23 | 34.6 | – | –
3 | GGGAGACAUGAGGAUCACCCAUGUGAGAAGAGGCGAGGAUAUCGAAAGAAAGAAGAGAAACGAGAAGGCGCGAGAU [salish99-SS1-053] | 30.3 | 67 | – | –
4 | UAUAAACAUGAGGAUCACCCAUGUAGAAAUAUGGGAGGAUAUACAAAGACGAAAGUCAAAGUAGAAGGCCUAAUAU [Mat - Same State 1 - Mod - D155] | 18.9 | 55.3 | – | –
5 | AAAUAGUGCCUGGAGGAUAUGUCGCAUGACACAUGAGGAUCACCCAUGUGGUAACACAGAGGGUGGCAGAAGGCUGGGUGCAAAC [Mod 4 of Pariah 6 (Round1) by Hyphema] | 27.4 | 260 | – | –
6 | UAGAGACAUGAGGAUCACCCAUGUAGGAUUAUGGGAGGAUAUACAAAGACGAGAGUCAGAGUAGAAGGCCUAGGAG [salish99-ss1-135(!)] | 22 | 64.9 | – | –
7 | AAAAAACAUGAGGAUCACCCAUGUCGAAAGACGUGAGGAUAUGUACAGACUUCGGUCUGUACAGAAGGCACGUCAA [SS1 - 1044] | 17.3 | 24.8 | – | –
8 | AAAGACACAGUGCAGGAUAUAGUAAUAGUCACAUGAGGAUCACCCAUGUUCUUUUAUAAGAACGAUUAGAAGGGCGGUGAAAAAA [SameState2 Malc#11] | 161 | 383 | – | –
9 | AGAAAUAAAACACAGGAUAUCCAAAAUAAAACAUGAGGAUCACCCAUGUAAAAUAAAAUAAAAUGGGAGAAGGGUGAAAAUAAAG [Mat - Same State 2 - JL mod - D10] | 25.3 | 39.9 | – | –
10 | UAAAAUAAAACAUAGGAUAUCAAAAUAAAAACAUGAGGAUCACCCAUGUGAAAACAUGAGAAGGAUGAGAAGGAAAAUAAAAUAA [Meechl SS2 R2 m1] | 25.7 | 51.6 | – | –
11 | AAAAAACAUGAGGAUCACCCAUGUGAGAACAUGGGAGGAUAUACGAAGACGAAAGUCGAAGUAGAAGGCCUAAAAG [Garnet 79] | 994 | 91.2 | – | –
12 | AAAAAACAUGAGGAUCACCCAUGUGAAAAUAUGGGAGGAUAUACAAACACGAAAGUGAAAGUAGAAGGCCUAAAAA [SS! MT 16] | 19.7 | 167 | – | –
13 | AAAAGACAUGAGGAUCACCCAUGUCAAAAGACAUGAGGAUAUGUACAGACUUCGGUCUGUACAGAAGGCAUGUAAA [SS1 - 1069] | 16.3 | 21.6 | – | –
14 | GCCUAACAUGAGGAUCACCCAUGUAGUGGGUUGUUAGGAUAUGGACCGCAAAACACGGUACCAGAAGGAAUAGAAA [Tiquleraat] | 448 | 720 | – | –
15 | AAAAUACAUGAGGAUCACCCAUGUGAGAAAAACGCAGGAUAUGCCCGUUGAAAAAGGCGGGCAGAAGGGUGCCGAA [SameState1-III] | 69.8 | 50.6 | – | –
16 | AGGAAACAUGAGGAUCACCCAUGUAAAAAUAUGGGAGGAUAUACGAAGAAAAAAAAAAAAGUAGAAGGCCUAAAAG [Garnet 11] | 90.7 | 345 | – | –
17 | ACUUCACAUGAGGAUCACCCAUGUCAGGCCGGACUAGGAUAUUAUCAUGCAGCGUAACCAUAAGAAGGAGUAGGAA [JR_SS001_Sub314] | 136 | 57.3 | – | –
18 | GACUGACAUGAGGAUCACCCAUGUAUUCAAACAUGAGGAUAUAUAACACGUCAUCGACGGAUAGAAGGCAUAGAUG [JR_SS001_Sub1209] | 117 | 162 | – | –
19 | AAAAAACAUGAGGAUCACCCAUGUAAAAAAAUGGGAGGAUAUACAAAGACGAAAGUCAAAGUAGAAGGCCUGAAAA [same state 4] | 29.8 | 105 | – | –
20 | AAUACACAUGGUCAGGAUAUCGCAGCUAGGACAUGAGGAUCACCCAUGUCGCACGUAACCGUAACCGAGAAGGGACAGGGUGAUC [JR_SS002_Sub410] | 21.8 | 34 | – | –
21 | UCAAAACAUGAGGAUCACCCAUGUAGUCUAAAGCGAGGAUAUGGGUUUCUUUAAAGAGUACCAGAAGGCGCCAAAA [Entibi] | 23.3 | 60.9 | – | –
22 | CGUAAACAUGAGGAUCACCCAUGUCAAUAUGAUCAAGGAUAUGGGUUCCGAAGUGGAACACCAGAAGGUGAAUAGU [Inrea] | 377 | 580 | – | –

Row | Sequence | apparent KD of MS2 coat protein (MS2 coat protein [1]) [nM] | apparent KD of MS2 coat protein (MS2 coat protein [2]) [nM] | apparent KD of MS2 coat protein (MS2 coat protein [3]) [nM] | apparent KD of MS2 coat protein (MS2 coat protein [4]) [nM]
23 | GGAAAACAUGAGGAUCACCCAUGUUAGUGUCAUUAAGGAUAUGGGCUUAAGAAUUUGAGACUAGAAGGUGAUGCGC [Soisla] | 21.8 | 49.2 | – | –
24 | GUGGCGCAGGUACAGGAUAUGUUUCUCGUAACAUGAGGAUCACCCAUGUACCUAUGAGAUUAAAUGCAGAAGGGUGCACGCCACG [Inedor] | 41.1 | 154 | – | –
25 | GCCUAACAUGAGGAUCACCCAUGUAGUGGGUUGUUAGGAUAUGGACCACAAAACGCGGUACCAGAAGGAAUAGAAA [Atbima] | 393 | 538 | – | –
26 | AUAAAAUAAAGUGAGGAUAUCUAUAAUAAAACAUGAGGAUCACCCAUGUUAAAAAAAAGAUCAUGGGAGAAGGCAUAAAAUAAAU [SS2 M 31] | 7.51 | 21.7 | – | –
27 | AUGAAAGUAACACAGGAUAUCCAGGAUACAACAUGAGGAUCACCCAUGUACAUACGAACGUAUAAGGAGAAGGGUGGAUGAUCUUC [ss2-2] | 50.7 | 59.3 | – | –
28 | CAGGACGUAGGAUAGGAUAUAUGAAUAAUUACAUGAGGAUCACCCAUGUCCAUUUAUAUGGGAACAUAGAAGGGUUGUGGUUAUG [Mat - Same state - Malcolm Mod - D144] | 680 | 315 | – | –
29 | UAAAAACAUGAGGAUCACCCAUGUGAAAAUAUGGGAGGAUAUACAAAGACGAGAGUCAAAGUAGAAGGCCUAAAAU [Mat - Same State 1 - Eli mod - D88] | 15.7 | 115 | – | –
30 | CGUGAACAUGAGGAUCACCCAUGUGAAAAACAUAGAGGAUAUGUCGCGUGAGUGCAAAAGACAGAAGGCUAUCGUG [Mod 4 of Round 1 starryjess' Mod pf Nando] | 19.9 | 35.1 | – | –
31 | CUCUAGUCAGGAUAUGGAAGAAAAGAAGAGAAAGAAAAGAACCAGAAGGGACAUGAGGAUCACCCAUGUAAGAA [EteRNA is fun!] | – | – | 78.2 | 41.8
32 | AAGAGUACAGGAUAUACAUGAAAAGAGUCGAAAGACUCAAAACAUGAGGAUCACCCAUGUAGAAGGGUACUCAA [Hyphema Seclusion Mod 62% 2] | – | – | 137 | 98.9
33 | AAGGGACAUGAGGAUCACCCAUGUCAGGAUAUGCUAUGGAAAAUAAAAAUAAAACAUAGCAGAAGGGAUAAAAA [Denovo 3] | – | – | 20.2 | 45.4
34 | AGCUAGUCAGGAUAUACGAGAAUGUCAAAAGACGUGAAGGGACAUGAGGAUCACCCAUGUAGAAGGGACUAGCA [Diamond 23] | – | – | 39.3 | 208
35 | AAGGGACAUGAGGAUCACCCAUGUCAGGAUAUGCUAUGGAAAUAAAAAAUAAAACAUAGCAGAAGGGACACCAA [Mat - Exclusion 1 - Eli mod - D49] | – | – | 24 | 39.2
36 | UAUGAGCGAGGAUAUGCUUGGGACGUCGUUCUUGCGGCGAGACAUGAGGAUCACCCAUGUAGAAGGCGCGAGCG [Harteesian Twist] | – | – | 17.4 | 16.7
37 | AAAAUACAUGAGGAUCACCCAUGUGAGGAUAUGAGAAAGGGAAUAAAAUAACCCAAACUCAGAAGGCACAAAAA [Ex 1 May 26] | – | – | 35.9 | 45.9
38 | AAAAGCAGAGGAUAUACAUAAUUAUGACGAAAGUCAUAAAAACAUGAGGAUCACCCAUGUAGAAGGCUGCAAAA [MOD of Meechl's MS2 Ex2 (MS2 riboswitches - Exlclusion 2)] | – | – | 24.9 | 28.1
39 | AAAAAACAUGAGGAUCACCCAUGUGAGGAUAUGACGUAAAUAAAGAAAGAAGAAAUCGUCAGAAGGCACAAAAA [55%, Disencluded 2, 6] | – | – | 42.3 | 41
40 | AAAGGACGAGGAUAUACAUGAGGAUCACCCAUGUAAAAAACAUAAUAAAAGAAUAUAUGUAGAAGGCGUCCAAA [Ruby 59] | – | – | 18.7 | 17.8
41 | GAAAAGGUAGGAUAUACGAAAAAAAAGGGUAAAAUAAAUAAACAUGAGGAUCACCCAUGUAGAAGGACCAAAAG [Mat - Exclusion 2 - Tesla mod - D39] | – | – | 30.1 | 49.6
42 | AACUGACAUGAGGAUCACCCAUGUCAGGAUAUGAUUUGACGAAAUAAAAUAAGUCAUAUCAGAAGGGACAUGGG [Design 83: Sub-opt VB] | – | – | 26.2 | 21.2
43 | CAGUACUGAGGAUAUACAUGAGGAUCACCCAUGUAAAAAACCUACGAAAGUAGGAAAUGUAGAAGGCAGUACUG [Ex3: 803] | – | – | 16.4 | 22.2
